Experiments:
human CD45RC [1] = molecular target: T1, human CD45RC (human, UniProt P08575 26-1306); experiment: flow cytometry, EDTA whole blood, one of three healthy volunteers [1]
T1 construct: Native protein on human blood leukocytes / PBMC / T cells of healthy volunteers; also called hCD45RC
T1 sequence: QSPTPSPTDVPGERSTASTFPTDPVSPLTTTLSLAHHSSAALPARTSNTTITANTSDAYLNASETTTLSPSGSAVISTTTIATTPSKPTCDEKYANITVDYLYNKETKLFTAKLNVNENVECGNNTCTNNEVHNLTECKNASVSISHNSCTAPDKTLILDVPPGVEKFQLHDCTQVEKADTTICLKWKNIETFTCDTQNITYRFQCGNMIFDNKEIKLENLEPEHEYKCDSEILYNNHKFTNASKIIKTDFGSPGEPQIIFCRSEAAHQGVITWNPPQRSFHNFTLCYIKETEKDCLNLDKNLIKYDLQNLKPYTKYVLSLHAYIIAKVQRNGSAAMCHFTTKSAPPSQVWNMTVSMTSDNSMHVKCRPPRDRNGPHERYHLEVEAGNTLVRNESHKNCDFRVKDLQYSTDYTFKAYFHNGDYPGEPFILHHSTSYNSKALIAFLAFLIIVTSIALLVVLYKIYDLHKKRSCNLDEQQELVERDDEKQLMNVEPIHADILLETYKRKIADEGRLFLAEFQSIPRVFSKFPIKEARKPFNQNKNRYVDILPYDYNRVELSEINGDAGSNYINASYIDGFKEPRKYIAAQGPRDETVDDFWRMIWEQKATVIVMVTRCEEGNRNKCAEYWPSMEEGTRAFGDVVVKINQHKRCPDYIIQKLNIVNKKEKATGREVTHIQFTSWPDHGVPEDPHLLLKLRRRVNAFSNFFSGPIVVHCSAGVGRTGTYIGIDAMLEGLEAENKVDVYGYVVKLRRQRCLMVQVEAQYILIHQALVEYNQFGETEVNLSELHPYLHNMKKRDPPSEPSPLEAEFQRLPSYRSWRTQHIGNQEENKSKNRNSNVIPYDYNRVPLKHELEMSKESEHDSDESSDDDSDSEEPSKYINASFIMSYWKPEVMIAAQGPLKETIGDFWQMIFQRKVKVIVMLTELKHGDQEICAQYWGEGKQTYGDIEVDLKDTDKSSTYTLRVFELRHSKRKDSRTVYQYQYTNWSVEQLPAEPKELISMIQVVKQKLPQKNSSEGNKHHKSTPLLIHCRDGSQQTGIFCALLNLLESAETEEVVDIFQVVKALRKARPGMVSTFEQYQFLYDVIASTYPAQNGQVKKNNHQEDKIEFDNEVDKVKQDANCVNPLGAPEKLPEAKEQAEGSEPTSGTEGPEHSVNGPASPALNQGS

human CD45RC [2] = molecular target: T1, human CD45RC; experiment: flow cytometry, EDTA whole blood, one of three healthy volunteers; very few events [2]
human CD45RC [3] = molecular target: T1, human CD45RC; experiment: flow cytometry, EDTA whole blood, one of three healthy volunteers [3]
human CD45RC [4] = molecular target: T1, human CD45RC; experiment: flow cytometry, EDTA whole blood, one of three healthy volunteers [2]
human CD45RC [5] = molecular target: T1, human CD45RC; experiment: flow cytometry on T cells of human PBMC; biotin anti-human IgG + streptavidin PerCP-Cy5.5

## MT2 (murine anti-hCD45RC antibody, commercially available)
Human CD45RC [1]
  % of B cells in the CD45RC high gate (top): 79.9%
  % of B cells in the CD45RC intermediate/low gate (middle): 20.1%
  % of B cells in the CD45RC negative gate (bottom): 0%
  % of CD3+ TCRab cells in the CD45RC high gate (top): 8.34%
  % of CD3+ TCRab cells in the CD45RC intermediate/low gate (middle): 46.2%
  % of CD3+ TCRab cells in the CD45RC negative gate (bottom): 45.5%
  % of CD3+ TCRgd cells in the CD45RC high gate (top): 1.93%
  % of CD3+ TCRgd cells in the CD45RC intermediate/low gate (middle): 90.6%
  % of CD3+ TCRgd cells in the CD45RC negative gate (bottom): 7.46%
  % of CD4+ T cells in the CD45RC high gate (top): 3.64%
  % of CD4+ T cells in the CD45RC intermediate/low gate (middle): 47.2%
  % of CD4+ T cells in the CD45RC negative gate (bottom): 49.2%
  % of CD4+ Treg (CD25+CD127-) in the CD45RC high gate (top): 3.52%
  % of CD4+ Treg (CD25+CD127-) in the CD45RC intermediate/low gate (middle): 19.8%
  % of CD4+ Treg (CD25+CD127-) in the CD45RC negative gate (bottom): 76.7%
  % of CD8+ T cells in the CD45RC high gate (top): 38.8%
  % of CD8+ T cells in the CD45RC intermediate/low gate (middle): 39.7%
  % of CD8+ T cells in the CD45RC negative gate (bottom): 21.5%
  % of NK cells in the CD45RC high gate (top): 28.6%
  % of NK cells in the CD45RC intermediate/low gate (middle): 70.4%
  % of NK cells in the CD45RC negative gate (bottom): 1%
  % of T cells in the CD45RC high gate (top): 7.43%
  % of T cells in the CD45RC intermediate/low gate (middle): 49.7%
  % of T cells in the CD45RC negative gate (bottom): 42.9%
Human CD45RC [2]
  % of ILC3 in the CD45RC high gate (top): 50%
  % of ILC3 in the CD45RC intermediate/low gate (middle): 50%
  % of ILC3 in the CD45RC negative gate (bottom): 0%
Human CD45RC [3]
  % of basophils in the CD45RC high gate (top): 0%
  % of basophils in the CD45RC intermediate/low gate (middle): 7.3%
  % of basophils in the CD45RC negative gate (bottom): 92.7%
  % of eosinophils in the CD45RC high gate (top): 0.47%
  % of eosinophils in the CD45RC intermediate/low gate (middle): 90.5%
  % of eosinophils in the CD45RC negative gate (bottom): 9.08%
  % of mDC in the CD45RC high gate (top): 0%
  % of mDC in the CD45RC intermediate/low gate (middle): 14.3%
  % of mDC in the CD45RC negative gate (bottom): 85.7%
  % of monocytes CD14intCD16+ in the CD45RC high gate (top): 6.45%
  % of monocytes CD14intCD16+ in the CD45RC intermediate/low gate (middle): 87.7%
  % of monocytes CD14intCD16+ in the CD45RC negative gate (bottom): 5.87%
  % of neutrophils in the CD45RC high gate (top): 0.014%
  % of neutrophils in the CD45RC intermediate/low gate (middle): 19.3%
  % of neutrophils in the CD45RC negative gate (bottom): 80.7%
  % of pDC in the CD45RC high gate (top): 1.84%
  % of pDC in the CD45RC intermediate/low gate (middle): 97.9%
  % of pDC in the CD45RC negative gate (bottom): 0.23%
Human CD45RC [4]
  % of ILC1 in the CD45RC high gate (top): 9.3%
  % of ILC1 in the CD45RC intermediate/low gate (middle): 27.5%
  % of ILC1 in the CD45RC negative gate (bottom): 63.2%
  % of ILC2 in the CD45RC high gate (top): 45%
  % of ILC2 in the CD45RC intermediate/low gate (middle): 49.5%
  % of ILC2 in the CD45RC negative gate (bottom): 5.5%
  % of MAIT cells in the CD45RC high gate (top): 5.89%
  % of MAIT cells in the CD45RC intermediate/low gate (middle): 71%
  % of MAIT cells in the CD45RC negative gate (bottom): 23.2%
  % of NKT cells in the CD45RC high gate (top): 34.4%
  % of NKT cells in the CD45RC intermediate/low gate (middle): 54.2%
  % of NKT cells in the CD45RC negative gate (bottom): 11.4%
  % of iNKT cells in the CD45RC high gate (top): 24.1%
  % of iNKT cells in the CD45RC intermediate/low gate (middle): 61.6%
  % of iNKT cells in the CD45RC negative gate (bottom): 14.3%
  % of monocytes CD14+ in the CD45RC high gate (top): 0.43%
  % of monocytes CD14+ in the CD45RC intermediate/low gate (middle): 43.9%
  % of monocytes CD14+ in the CD45RC negative gate (bottom): 55.6%
  % of monocytes CD14highCD16- in the CD45RC high gate (top): 0.091%
  % of monocytes CD14highCD16- in the CD45RC intermediate/low gate (middle): 38.3%
  % of monocytes CD14highCD16- in the CD45RC negative gate (bottom): 61.6%

B1: Anti-45RC Variant A (antibody, human IgG1, kappa, V domains shown)
VH: QVQLVQSGAEVKKPGASVKVSCKASGYTFTNYYIGWVRQAPGQGLEWIGDIFPGGDYANSNEKFKGRVTLTADTSISTAYMELSRLRSDDTVVYYCVRRNFDYWGQGTLVTVSS
VL: DIQLTQSPSFLSASVGDRVTITCSASSSVSYMHWFQQKPGKAPKLWIYNTSNLPSGVPSRFSGSGSGTEYTLTISSLQPEDFATYYCQQRSSYPLTFGGGTKVEIKR
notes: also called humanized ABIS-45RC variant A
Human CD45RC [5]
  % of T cells in the CD45RC gate at 1 µg/mL: 58.2%
  % of T cells in the CD45RC gate at 2 µg/mL: 60.2%

B2: Anti-45RC Variant B (antibody, human IgG1, kappa, V domains shown)
VH: QVQLVQSGAEVKKPGASVKVSCKASGYTFTNYYIGWVRQAPGQGLEWIGDIFPGGDYANSNEKFKGRVTLTADTSISTAYMELSRLRSDDTVVYYCVRRNFDYWGQGTLVTVSS
VL: EIVLTQSPDFQSVTPKEKVTITCSASSSVSYMHWFQQKPDQSPKLWIYNTSNLPSGVPSRFSGSGSGTDYTLTINSLEAEDAATYYCQQRSSYPLTFGGGTKVEIKR
notes: also called humanized ABIS-45RC variant B
Human CD45RC [5]
  % of T cells in the CD45RC gate at 1 µg/mL: 43.9%
  % of T cells in the CD45RC gate at 2 µg/mL: 32.7%

B3: Anti-45RC Variant C (antibody, human IgG1, kappa, V domains shown)
VH: QVQLVQSGAEVKKPGASVKVSCKASGYTFTNYYIGWVRQAPGQGLEWIGDIFPGGDYANSNEKFKGRVTLTADTSISTAYMELSRLRSDDTVVYYCVRRNFDYWGQGTLVTVSS
VL: EIVLTQSPATLSLSPGERATLSCSASSSVSYMHWFQQKPGQAPRLWIYNTSNLPSGIPARFSGSGSGTDYTLTISSLEPEDFAVYYCQQRSSYPLTFGGGTKVEIKR
notes: also called humanized ABIS-45RC variant C
Human CD45RC [5]
  % of T cells in the CD45RC gate at 1 µg/mL: 63.3%
  % of T cells in the CD45RC gate at 2 µg/mL: 63.7%

B4: Anti-45RC Variant D (antibody, human IgG1, kappa, V domains shown)
VH: EVQLVQSGAEVKKPGESLKISCKASGYTFTNYYIGWVRQMPGKGLEWIGDIFPGGDYANSNEKFKGQVTLSADKSISTAYLQLSSLKASDTAMYYCVRRNFDYWGQGTLVTVSS
VL: DIQLTQSPSFLSASVGDRVTITCSASSSVSYMHWFQQKPGKAPKLWIYNTSNLPSGVPSRFSGSGSGTEYTLTISSLQPEDFATYYCQQRSSYPLTFGGGTKVEIKR
notes: also called humanized ABIS-45RC variant D
Human CD45RC [5]
  % of T cells in the CD45RC gate at 1 µg/mL: 57.2%
  % of T cells in the CD45RC gate at 2 µg/mL: 59.5%

Reference: patent US20230147657A1 (INSERM INSTITUT NATIONAL DE LA SANT ET DE LA RECHERCHE M …, published 2023)
